Data: a protein production outcome set (Wang et al. 2014)

Assay: label from the status in PepcDB records

Row | Sequence | protein production
1 | MLVNGQHYHLINDISGEKPVLLMLHGFTGSSETFQDSISLLKEHFSIIAPDLLGHGKTSCPKEVARYSIENICDDLASILHQLKIDSCFVLGYSMGGRVATAFAAKYKELVRGLVLVSSSPGLRDEKARASRISADNRLADTLDADGIEPFVAYWENLALFASQKNLPFALKKRIRLERLAQNPHGLAKSLRGMGTGKQPSYWENLADFTFPVLLITGNLDEKFEKIAREMKQLLPNSTHVTVQEAGHAVYLEQPNIFSSQLIYWLEGILKEEEK | failed
2 | MKTEMLHTQEDILKMLDSLLRPAEPFWNEFYENREKDVPFFENVPDENLVSYIQKERVLKGKVLELGCGPGRNAIYLANEGFDVTAVDLSVEGINWAKERALAKGVEIHFICDSIFNLEVQNEFDFVYDSGCLHHIPPHRRINYVDLIKNSLKSGGYFGLTCFAAGDLDERNGSEITDWDVYREWSLQGGLAYSEEKLREIFKELEVIEIRRMKQMKQPNEMFGESFLWTALFKKK | failed
3 | RQVTDSDETEELIHLLLDNYAEGKIVKLLFMSENATQPVISQVAKENDVMLNVLHGNLTQTQNGAYGTLYVQVLGTEEAIEASLTQLRQLKVETEVLER | not failed
4 | MLTIREIQSLVHKGEPGQWSHTKALYFFIAPSGRPFWAIRYMLKGRRRQMSLTDSIPATVRELKQIELLSETEREKVRKGIDPLAEREAAKAASPEPVRQLVTFKSVALDYIAANRGGWKNAKHVQQWENTLATYVYPVIGHLEPQSITTAEVLKILQPLWATKRETASRVRSRVETIIGAAKAKGMSEKPEIWANHHNPARWADNLEFWLNGKQEKNHFSAMPYPEIPAFAQSIAEREDYSTKALQFLILTATRTNETLGAEWSEIDTEKAVWTIPASRMKSGKEHRVPLSSEALKLVASLLRIEGNPYLFPGAIRNKSLSNMALLMVMRGLKLGHYVPHGFRSAFRDWAAEETVYPNHIVEMALAHTIKNKVEAAYRRGDLMEKRRQLMEDWSAYLASAR | failed
5 | YGDINLNLLKDKGYTTLQDEAIKIFNSLQQLESMSDPIPIIQGILQTGHDLRPLRDELYCQLIKQTNKVPHPGSVGNLYSWQILTCLSCTFLPSRGILKYLKFHLKRIREQFPGTEMEKYALFTYESLKKTKCREFVPSRDEIEALIHRQEMTSTVYCHGGGSCKITINSHTTAGEVVEKLIRGLAMEDSRNMFALFEYNGHVDKAIESRTVVADVLAKFEKLAATSEVGDLPWKFYFKLYCFLDTDNVPKDSVEFAFMFEQAHEAVIHGHHPAPEENLQVLAALRLQYLQGDYTLHAAIPPLEEVYSLQRLKARISQSTKTFTPCERLEKRRTSFLEGTLRRSFRTGSVVRQKVEEEQMLDMWIKEEVSSARASIIDKWRKFQGMNQEQAMAKYMALIKEWPGYGSTLFDVECKEGGFPQELWLGVSADAVSVYKRGEGRPLEVFQYEHILSFGAPLANTYKIVVDERELLFETSEVVDVAKLMKAYISMIVKKRYSTTRSASSQGSSR | failed
6 | MGKVTIIAGGIKTESRLNGLIQLAANQLANNGTEVKIIEVHKIQAEALVTADFTHPDIHLANSEIESSSGVIIATPIFKAAYSGVLKAYLDLLPLKALKGKVVLPLGLGGSNGHLLALQYALDPVLKELGAEIILKGQFTVDKQIERLGNGLYEIEITAKERLDSALNQFISLLNQNSVEVLEHHHHHH | not failed
7 | MTEAMIRKKPGMASVKDMPLLQDGPPPGGFAPVRYARRISNTGPSAMAIFLTVSGAFAWGMYQVGQGNKIRRALKEEKYAARRAILPILQAEEDERFVSEWKKYLEYEADVMKDVPGWKVGENVYNSGRWMPPATGELRPDVW | failed
8 | MRTFTWRKGSLSKVNTCYVLAGGKSKRFGEDKLLYEIKGKKVIERVYETAKSVFKEVYIVAKDREKFSFLNAPVVLDEFEESASIIGLYTALKHAKEENVFVLSGDLPLMKKETVLYVLENFKEPVSVAKTEKLHTLVGVYSKKLLEKIEERIKKGDYRIWALLKDVGYNEVEIPEELRYTLLNMNTKEDLKRILAIENHY | not failed
9 | MSQSNHPGGKDAGSIPRVLISADRSSSGKTTISMGLMAALVSRGYKVQPFKVALDYIDPSYHTEITGRFCRNLDGYLMDEHGILDVYTHACETGGGADIAIIEGVRGLFEGFESLSDVGSTAQIAKILKCPVVFVINARSITRSAAALIGGYKNFDPDVEIAGVILNNIGGRRHAQKAKEAIEHYTGVPVLGIIPRDPSMQISMRHLGLMPALEGRRRFGDGGFENRLHGIEEIINKGIDVDRFLGIAESAKPLTALENSIFSPAVNENSQKPKIGVALDEAFNFYYRDNIDLLEIAGAEIVYFSPVNDPGLPEVDGLYIGGGYPELFAAELEANETMRKSIKEASAAGMPIYAECGGLMYLTEKISTGVPGKGTYHDASMPESTYSMVGALPGHTIMGQTRVVSYNIGTLARDCPIGKKGNSFKGHEFHHSEILEIPDDAEFAIALTRGTGIRGDRDGLIVNNTIGSYAHLHGVAYRELAGSLVEAARKFRDSRVSSLEHHHHHH | not failed
10 | MSDKLFSIVTISFNQAQFLREAVESVLAQKGGDIEYIVVDPGSTDGSREILAEYRSAIDHLILEADHGPGDGLNKGFARANGRYGYFLNSDDFLLPGAIDIMRTLWQRHKNTDVLLCGAWMVDENRRPQRELRPSPVTLEKLLDGEAKIVQQGMSFRMDLFRKVGGFNVGNRTCWDYELLCDFLAAGAAVTQSEARLAAFRIHSASISGGIGGELATKRYLADLDSVYERLTGQKKKPEQRRRAVRLSKRLGSPSHVLLRMRELLAPWTLELRWQADHERKSRRLEHHHHHH | failed
11 | MKLKRKILALLMAALLAVSLAGCGQTSQAPANPPAAPEAGTPTERTVTDMAGRTVTLPAEVKTVGTFGSIGVLNAFVETLSAGERLANEGSPSFVKSPTWEKYQYQFTPHIKNLKPFQGADSELLMENILAAKPDVCLTMSADLTEQLEKQGLNVVQLSWTKTEDVKECITLLGEVLNQQEVAADYLKYFDDMLAKAADLTKDIKDADKKTVVYGNVSKFSQPHVIAEWWIDKAGGISVTSEAMTKANKESLTYTLEDLLKWNPDVMFVASAAEKKEVLADARLGEITAVKNGAIYIVPRIAHVWGNRTTEQPLTIMWAMNKLYPEIVTDSQLAEDISYFYSHFFKYDFNADQLKEIMGK | failed
12 | LGTLFFSLEYNFERKAFVVNIKEARGLPAMDEQSMTSDPYIKMTILPEKKHKVKTRVLRKTLDPAFDETFTFYGIPYTQIQELALHFTILSFDRFSRDDIIGEVLIPLSGIELSEGKMLMNREII | not failed
13 | MAIQFIVSNKYTAEVSKQLNDSQNWVLDSGIYYEDHNNHIVSSPINSATKPQNTREEWLWIPPHCQVVVCSTSSLKSFLGCKASEDLDRVFGDHPLWLDQLRPLSNLLENSLIDLLSRAPFEQSSKRNIQSMERGNPVMNWNVMQVEEEDTRGEQRVAASSSLSSSFDWNTFLRDRCGLSEEDVAYCFRKLSRFGRVSLSRLNEDSLLRMGINDPTVIAKLLIGITEEFS | failed
14 | MNLFYRCRFFLFNNKVKNRGRGNKVVTNSASAKACTILFNGNNNTVILGESASLRGCLIIMSGDDHVLEIGAHTSIYKSNIAFEDHHCLISIGDYTTIQENGGISAVEPYSKIIIGKRCMFSVDVDIRNTDSHSIIKLDTGERINPGKNIFIDDKVWLGAYVQVLKGVSIGNNSIVGIRSLVTKDIPSHALAVGVPAKVIKTNVDWREERI | failed
15 | MRVLITGATGGLGGAFARALKGHDLLLSGRRAGALAELAREVGARALPADLADELEAKALLEEAGPLDLLVHAVGKAGRASVREAGRDLVEEMLAAHLLTAAFVLKHARFQKGARAVFFGAYPRYVQVPGFAAYAAAKGALEAYLEAARKELLREGVHLVLVRLPAVATGLWAPLGGPPKGALSPEEAARKVLEGLFREPVPALLEV | not failed
16 | MDNKVSILNQPKPFKMIFFIELWERFGYYGLQGILAVYFVDKLGFSMQDSFVTFGAFAALVYGLVSVGGYVGDYVLGTKRTMVFGAVVLALGYFLMGFSILNPNFIYLALGAIAVGNGLFKANPSSLLAKCYEKGDSRLDGAFTLYYMSINIGSLVSLSISPVIANNYGYEYAFVICGLGLIASLFSYFSLRSTVQGIGSEPDALPLNKTKALIVLIGTVASTLVCAWLLQNIMMANLALGLIGVGVVGFFLKETFKETGEQRNKMIVAFILMLQAIIFYVLYAQMPTSLNFFAINNVHSELFGIDINPVSLQALNPFWVIFCSPILAYLYTYYGNQNKDLSMPGKFTVGMFMCAFGFLSVAAAGNWFADQAGMVSVWWMILVYLFQSLGELMISGLGLAMVASLVPQRLMGFTMGAWFLTQAASFIIGGYVATFSATPEHLTAPLDTLPVYTELFQNIGFVTLAVAIVMAFTAPKLNKMMTSSQPEDAELVEQP | failed
17 | MSLDLSLNNLYSISTVELIQAFANTPASVTSLNLSGNSLGFKNSDELVQILAAIPANVTSLNLSGNFLSYKSSDELVKTLAAIPFTITVLDLGWNDFSSKSSSEFKQAFSNLPASITSLNLRGNDLGIKSSDELIQILAAIPANVNSLNLRGNNLASKNCAELAKFLASIPASVTSLDLSANLLGLKLEHHHHHH | failed
18 | MDTFDINTEINEDEINVEKIMEKIRENIRKQKGAGIFPEKIHGDLQQGSLLEVTPGESNIQRDLDYINSNWDIQNNSYFISSHRPFVGKFLVRGRDLVHGEIRRYVDPVFWKQTEFNGSTVRLLNDTAGKFIYYNNKIEQLQSEMDSKIEQLQSEMDSKIEHLRPELGNKIERLRSEFENQIEQLKSEIDDSIKAEVNSIISLMNLDIENKAWLASVLDGKIEKGYKNKKTGTPDPGDLDINYFRFEEQFRGSREDIKQRQSCFMNYFLGCSNVLDIGCGRGEFLELASEHGIGAKGVDIDDTMVDFCLSKGLNVVKQEAISYLESVDDKSLDGIFIDQVVEHLEPDYLIKLLKLCFQKLKYGYYIFAETVNPLSFVSFANFYIDMTHKKPIHPETLKFLLTSAGFRDVDTMFFSPVSEKARLQKVPINNDMEEWVKNYLDIYNHNLEKLNGILYGAQDYAVIGKK | failed
19 | MKQFVLFFISLFLLGVGARSQEMYQKKVFISSRGDSLNYRLLRPEVEKTGLQYPLVLFLHGAGERGSDNEKQLTHGGQMFLNPVNREKYPAFVLVPQCPEKDYWAYTSRPSSFIPSEMPVGQEITPVLRAVKELLDTYLDLPQVDRNRIYVVGLSMGGMATYDLAVRFPDTFAAAVPICGTVNPVRLADAANVRFRIFHGDADNVVPVEGSREAYKALKNLGAEVEYIEFPGCNHGSWNPAFNYPGFMEWLFAQRKR | failed
20 | WILWSLTKISNHQEINEIIDQILQLTSDVFAADYTSVSFINNQQIARTISYYKFGKKEENISFSLINTPCAKVIQTKAICYFNDVQKQFPNDKLLKKMKINTYLAGPITNTQDEVIGIMTILCKRKVEFDTLNNTLFGLFLSRINSEIERLINLRKLE | failed
21 | MMKMDLKKEVKEEFIRFQRNEKTESIVYERLASIEKDESNRKVLRLISAEEKAHYATLKKYTETDVAPDKLRIAKYYWLARILGITFAIKLMESSEENAHHDYAKYTDYPDLRQLANEEEVHEQKLIGLINEERLEYMGSVVLGLNDALVEFTGALAGFTLALSDSRLIALTGSITGIAAALSMASSEYLSTKSEGGETKHPIKAAIYTGIAYIITVVALVAPFILIENVLIALGVMLAMALVIIALFNYYYSVARGESFRKRFTEMAVLSFSVAGISFLIGYALKTFTGIDA | failed
22 | MSGVASGKTAIKSTAKVLSFVVQKHWATRLHYDFRLELEGTMKSWAVPKGPSFDPNDKRMAVHVEDHPISYNSFEGEIPSGQYGAGKVIIWDKGTWIPLEDPHKGYRDGKLKFELRGLKLKGHWALVRMRKEENKKQEPWLLIKEKDEYVRSSREYSVVDEMPDSVAELEHHHHHH | failed
